Test results reported in patent US9988614.
Numbering of substitutions follows the chain as printed.

Columns and labels:
[1] = tested on: T1, BbsI P442A (subunit B variant) P442A (subunit B) (Brevibacillus laterosporus); assay: cleavage_in_vitro; settings: NEB4 buffer, relative activity 1; FI>=120 in NEB1 (1/4), >=32 in NEB2 (1/16), >=2 in NEB3 (1/256); reduced star activity
T1 sequence 1: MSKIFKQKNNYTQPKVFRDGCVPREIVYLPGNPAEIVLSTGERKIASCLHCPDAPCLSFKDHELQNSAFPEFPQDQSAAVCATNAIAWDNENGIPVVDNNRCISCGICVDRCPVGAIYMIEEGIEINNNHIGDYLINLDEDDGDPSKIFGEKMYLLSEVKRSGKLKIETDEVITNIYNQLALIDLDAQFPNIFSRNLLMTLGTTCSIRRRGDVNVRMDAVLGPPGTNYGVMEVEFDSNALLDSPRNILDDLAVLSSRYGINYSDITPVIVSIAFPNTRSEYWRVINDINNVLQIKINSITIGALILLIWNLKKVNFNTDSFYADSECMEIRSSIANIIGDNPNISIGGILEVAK
T1 sequence 2: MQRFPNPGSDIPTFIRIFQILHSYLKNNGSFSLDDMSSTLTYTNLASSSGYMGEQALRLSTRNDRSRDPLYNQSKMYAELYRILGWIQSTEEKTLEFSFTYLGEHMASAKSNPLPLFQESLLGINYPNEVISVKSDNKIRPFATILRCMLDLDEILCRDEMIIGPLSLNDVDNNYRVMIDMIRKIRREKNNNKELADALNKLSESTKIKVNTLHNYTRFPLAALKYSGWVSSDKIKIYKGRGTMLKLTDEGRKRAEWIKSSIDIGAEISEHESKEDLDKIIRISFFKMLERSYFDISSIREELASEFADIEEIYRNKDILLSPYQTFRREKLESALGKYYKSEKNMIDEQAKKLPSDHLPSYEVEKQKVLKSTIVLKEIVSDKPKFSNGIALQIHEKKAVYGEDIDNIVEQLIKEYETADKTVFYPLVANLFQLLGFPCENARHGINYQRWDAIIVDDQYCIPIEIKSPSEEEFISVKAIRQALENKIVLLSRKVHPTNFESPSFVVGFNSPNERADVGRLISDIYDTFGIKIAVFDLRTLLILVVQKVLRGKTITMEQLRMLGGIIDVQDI

[2] = tested on: T2, BbsI wild type (subunits A and B) (Brevibacillus laterosporus); assay: cleavage_in_vitro; settings: NEB4 buffer, relative activity 1; FI=32 in NEB1 (1/2), 120 in NEB2 (1), 64 in NEB3 (1/4); substrate sequence not stated
T2 sequence 1: T1 sequence 1
T2 sequence 2: T1 sequence 2 with A442P

## DNA substrate containing BbsI recognition site
[1]
  activity (fidelity index): > 500
[2]
  activity (fidelity index): 64
